In experiment [1] the target is T1, lYibK (linear PaYibK_lo) (Pseudomonas aeruginosa, UniProt Q9HU57).
T1 construct: gene trmL; recombinant in E. coli ER2566 from pBHRSF260, N-terminal His-SUMO fusion cut by Ulp1; homodimer
T1 sequence (Q9HU57 1-153): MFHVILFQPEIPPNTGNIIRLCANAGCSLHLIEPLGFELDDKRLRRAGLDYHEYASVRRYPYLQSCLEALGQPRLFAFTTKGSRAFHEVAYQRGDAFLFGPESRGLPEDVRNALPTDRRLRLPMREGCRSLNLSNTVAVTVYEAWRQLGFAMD
As to the kind of experiment: isothermal titration calorimetry. Type of experiment: binding.

In experiment [2] the target is T2, cYibK (cYibK_lo, backbone-cyclized PaYibK) (Pseudomonas aeruginosa, UniProt Q9HU57).
T2 construct: gene trmL; recombinant in E. coli ER2566 from pITRSF3D (SUMO fusion cut, LPETG-H6), N and C termini joined by S. aureus sortase A through a nine-residue linker, His-tag removed by ligation; backbone-cyclized, homodimer
As to the kind of experiment: isothermal titration calorimetry. It counts as binding.

Experiment [3] has as its target linear form of YibK from Pseudomonas aeruginosa with the identical sequence as PaYibK_lo / cYibK (Pseudomonas aeruginosa). The experiment is described as follows: SEC-SAXS; native conditions: buffer A (50 mM Tris-HCl pH 7.4, 0.5 mM EDTA, 5 mM DTT) without urea, 2% glycerol; protein at 10 mg/ml; online size-exclusion column (Bio SEC-3). Background: SEC sorts molecules by how far they enter the pores of the column.

Experiment [4] addresses backbone-cyclized YibK from Pseudomonas aeruginosa with a nine-residue linker (sortase A ligation of PaYibK_lo) (Pseudomonas aeruginosa). The experiment is described as above.
The target of experiment [5] is wild-type YibK from Pseudomonas aeruginosa in its linear form (Pseudomonas aeruginosa). As to the kind of experiment: crystal structure; PaYibK: 0.15 M ammonium sulfate, 0.9 M lithium sulfate, 0.1 M sodium citrate pH 5.6, 2.0 Å; cYibK: 0.3 M ammonium sulfate, 0.1 M MES pH 6.0, 25% PEG MME 5,000, 2.2 Å.

As for `Nc1ncnc2c1ncn2[C@@H]1O[C@H](CSCC[C@H](N)C(=O)O)[C@@H](O)[C@H]1O` [S-adenosyl-L-homocysteine], the Kd in experiment [1] worked out at 8.8 ± 0.01 µM; in experiment [2] it was 8.93 ± 0.03 µM.
“linear form of YibK from Pseudomonas aeruginosa with the identical sequence as PaYibK_lo / cYibK (enzyme)” returned a stoichiometry N in experiment [3] of 2.
In turn, “backbone-cyclized YibK from Pseudomonas aeruginosa with a nine-residue linker (sortase A ligation of PaYibK_lo) (enzyme)” came in with a stoichiometry N in experiment [4] of 2.
Take “wild-type YibK from Pseudomonas aeruginosa in its linear form (enzyme)”: in experiment [5], the stoichiometry N worked out at 2.

Usually Kd stands for the equilibrium constant for the complex coming apart. Low values mean higher affinity, high ones lower affinity. In general, stoichiometry N refers to the number of molecules, sites or subunits per partner or assembly.

The record behind these values is publication PMC8182377, “Tying up the Loose Ends: A Mathematically Knotted Protein” (Frontiers in Chemistry, 2021).
